Assay results reported in publication PMC9877012.

Legend:
[1] = target: Poly-L-lysine hydrobromide (MW, 70,000-150,000 Da)
[2] = target: Poly-L-lysine hydrobromide (MW, 70,000-150,000 Da); experiment: co-sedimentation; precipitation rate of LOX: LOX mixed with PLL, centrifuged at 18,000 x g for 20 min at 25 °C, LOX in the supernatant by absorbance at 280 nm; 5 µM LOX, 1 mM PLL, 5-20 mM (NH4)2SO4

relative enzyme activity of LOX (0.1 µM) with 0.02 mM PLL against LOX without PLL, 0-10 mM (NH4)2SO4 (about 15 times without and about five times with 10 mM ammonium sulfate) [1]: 15 fold | percent of LOX in the droplets [2]: 90%
B1: L-lactate oxidase (enzyme)
chain: MNNNDIEYNAPSEIKYIDVVNTYDLEEEASKVVPHGGFNYIAGASGDEWTKRANDRAWKHKLLYPRLAQDVEAPDTSTEILGHKIKAPFIMAPIAAHGLAHTTKEAGTARAVSEFGTIMSISAYSGATFEEISEGLNGGPRWFQIYMAKDDQQNRDILDEAKSDGATAIILTADSTVSGNRDRDVKNKFVYPFGMPIVQRYLRGTAEGMSLNNIYGASKQKISPRDIEEIAGHSGLPVFVKGIQHPEDADMAIKRGASGIWVSNHGARQLYEAPGSFDTLPAIAERVNKRVPIVFDSGVRRGEHVAKALASGADVVALGRPVLFGLALGGWQGAYSVLDYFQKDLTRVMQLTGSQNVEDLKGLDLFDNPYGYEY
